target: 20S core particle purified from S. cerevisiae (S. cerevisiae (endogenous in yeast)) (UniProt P22141); experiment: not given

Row | Substance | peptidase stimulation, % of WT base [% WT]
1 | recombinant base variant EN2 (pore-2 loop EN in Rpt2) (from UniProt P33299;P40327;P33298;P53549;P33297;Q01939;P38764;P32565;O13563) (complex) | 110
2 | recombinant base variant NT3 (C-terminal tail of Rpt3 truncated) (from UniProt P33299;P40327;P33298;P53549;P33297;Q01939;P38764;P32565;O13563) (complex) | 5
3 | recombinant base variant KS6 (Walker-A KS in Rpt6) (from UniProt P33299;P40327;P33298;P53549;P33297;Q01939;P38764;P32565;O13563) (complex) | 54
4 | recombinant base variant YA2 (pore-1 loop YA in Rpt2) (from UniProt P33299;P40327;P33298;P53549;P33297;Q01939;P38764;P32565;O13563) (complex) | 38
5 | recombinant base variant EQ4 (Walker-B EQ in Rpt4) (from UniProt P33299;P40327;P33298;P53549;P33297;Q01939;P38764;P32565;O13563) (complex) | 95
6 | recombinant base variant NT2 (C-terminal tail of Rpt2 truncated) (from UniProt P33299;P40327;P33298;P53549;P33297;Q01939;P38764;P32565;O13563) (complex) | 10
7 | recombinant base variant EQ5 (Walker-B EQ in Rpt5) (from UniProt P33299;P40327;P33298;P53549;P33297;Q01939;P38764;P32565;O13563) (complex) | 118

Results, then the substance that gave them:

Row | peptidase stimulation, % of WT base [% WT] | Substance
8 | 110 | recombinant base variant with the Walker-B EQ mutation in all six Rpt subunits (from UniProt P33299;P40327;P33298;P53549;P33297;Q01939;P38764;P32565;O13563) (complex)
9 | 84 | recombinant base variant YA1 (pore-1 loop YA in Rpt1) (from UniProt P33299;P40327;P33298;P53549;P33297;Q01939;P38764;P32565;O13563) (complex)
10 | 84 | recombinant base variant DN6 (pore-2 loop DN in Rpt6) (from UniProt P33299;P40327;P33298;P53549;P33297;Q01939;P38764;P32565;O13563) (complex)
11 | 58 | recombinant base variant KS3 (Walker-A KS in Rpt3) (from UniProt P33299;P40327;P33298;P53549;P33297;Q01939;P38764;P32565;O13563) (complex)
12 | 108 | recombinant base variant NT4 (C-terminal tail of Rpt4 truncated) (from UniProt P33299;P40327;P33298;P53549;P33297;Q01939;P38764;P32565;O13563) (complex)
13 | 10 | recombinant base variant KS2 (Walker-A KS in Rpt2) (from UniProt P33299;P40327;P33298;P53549;P33297;Q01939;P38764;P32565;O13563) (complex)
14 | 59 | recombinant base variant KS5 (Walker-A KS in Rpt5) (from UniProt P33299;P40327;P33298;P53549;P33297;Q01939;P38764;P32565;O13563) (complex)
15 | 192 | recombinant base variant DN4 (pore-2 loop DN in Rpt4) (from UniProt P33299;P40327;P33298;P53549;P33297;Q01939;P38764;P32565;O13563) (complex)
16 | 7 | recombinant base variant NT5 (C-terminal tail of Rpt5 truncated) (from UniProt P33299;P40327;P33298;P53549;P33297;Q01939;P38764;P32565;O13563) (complex)

target: 20S core particle purified from S. cerevisiae (S. cerevisiae (endogenous in yeast)) (UniProt P22141); experiment: peptidase-stimulation

Row | Kd [nM] | Substance
17 | 138 | recombinant base variant YA2 (pore-1 loop YA in Rpt2) (from UniProt P33299;P40327;P33298;P53549;P33297;Q01939;P38764;P32565;O13563) (complex)

target: recombinant base variant NT2 (C-terminal tail of Rpt2 truncated) (S. cerevisiae) (UniProt P33299); experiment: ATPase-repression titration

Row | fold lower affinity than wild-type base [fold] | Substance
18 | 1.3 | 20S core particle purified from S. cerevisiae (from UniProt P22141 1-198) (complex)

target: recombinant base variant NT5 (C-terminal tail of Rpt5 truncated) (S. cerevisiae) (UniProt P33299); experiment: ATPase-repression titration

Row | fold lower affinity than wild-type base [fold] | Substance
19 | 5.6 | 20S core particle purified from S. cerevisiae (from UniProt P22141 1-198) (complex)

Source: publication PMC3869383
